Experimental data: the supplement of paper PMC10126150
± gives the standard deviation of the averaged measurements.

Test system: ATP
Assay: switch fluorescence ratio, 500 uM ATP over buffer (Cy3 cluster intensity, sum of 5 cycles each) (fold (ratio)); higher = stronger signal-on switching upon ATP binding; sequences stand for … in TCGTCGGCAGCGTCAGATGTGTATAAGAGACAGTTTTTTTTTTTTTTTTTTTTTTTTT…TC
Details: aptamer strand: ATP DNA aptamer (quencher-CACCTGGGGGAGTATTGCGGAGGAAGG + anchor), 100 nM annealed; ATP concentration: 500 uM
In short: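 Imaging in selection buffer was followed by imaging after 15 min with 500 uM ATP at 22 °C, for Cy3-labelled switching-strand clusters annealed to 100 nM quencher-labelled ATP aptamer on a modified Illumina MiSeq flow-cell. Five of these buffer/ATP cycles ran, separated by NaOH stripping and re-annealing. The fluorescence ratio per cluster is summed target-cycle over summed buffer-cycle Cy3 intensity, averaged per switch-domain sequence; clusters outside 100-1000 RFU were removed.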
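Further: ATP exposure 15 min at 22 °C before imaging.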

| Sequence | switch fluorescence ratio |
| --- | --- |
| TTATAAATTG | 0.991 ± 0.03 |
| TTATAAG | 1.003 ± 0.0067 |
| TTATAATCGT | 0.988 ± 0.014 |
| TTATAATCTG | 0.986 ± 0.064 |
| TTATAATGGT | 1.02 ± 0.062 |
| TTATACAAGT | 0.9574 ± 0.0065 |
| TTATACATCT | 1.038 ± 0.0068 |
| TTATACATTG | 1.02 ± 0.041 |
| TTATACGATG | 1.01 ± 0.025 |
| TTATACGCGG | 0.991 ± 0.026 |
| TTATACGTAG | 1.03 ± 0.019 |
| TTATACGTCG | 1.01 ± 0.023 |
| TTATAGAGG | 1.02 ± 0.0041 |
| TTATAGGGG | 1 ± 0.039 |
| TTATAGGTCT | 1 ± 0.072 |
| TTATATCGGG | 0.995 ± 0.016 |
| TTATATTGGG | 1 ± 0.033 |
| TTATATTGGT | 0.974 ± 0.028 |
| TTATATTTCT | 1.01 ± 0.036 |
| TTATCAATGG | 1.01 ± 0.078 |
| TTATCAGTGG | 0.9707 ± 0.002 |
| TTATCATCTA | 1.02 ± 0.013 |
| TTATCATGGG | 0.993 ± 0.047 |
| TTATCCGGGT | 0.9661 ± 0.0088 |
| TTATCGGATT | 0.983 ± 0.029 |

| Sequence | switch fluorescence ratio |
| --- | --- |
| TTATCGGGAG | 0.9964 ± 0.0019 |
| TTATCTAATC | 0.972 ± 0.008 |
| TTATCTCGTA | 0.99 ± 0.013 |
| TTATCTCTGG | 0.9776 ± 0.0076 |
| TTATGAAAGG | 0.968 ± 0.03 |
| TTATGAATAG | 0.99 ± 0.011 |
| TTATGACATT | 1.01 ± 0.044 |
| TTATGACGGG | 1 ± 0.036 |
| TTATGAGAGC | 0.964 ± 0.022 |
| TTATGAGGGG | 1.009 ± 0.0077 |
| TTATGAGTTG | 0.963 ± 0.029 |
| TTATGAGTTT | 0.988 ± 0.036 |
| TTATGATCAG | 0.9912 ± 0.0038 |
| TTATGATTCA | 0.973 ± 0.022 |
| TTATGCAAAA | 1.14 ± 0.21 |
| TTATGCCGGG | 0.971 ± 0.032 |
| TTATGCTTTC | 1.25 ± 0.34 |
| TTATGGACTG | 1.01 ± 0.079 |
| TTATGGGAAG | 0.998 ± 0.013 |
| TTATGGGCAG | 1.01 ± 0.029 |
| TTATGGGCGA | 1 ± 0.046 |
| TTATGGTCTG | 0.984 ± 0.038 |
| TTATGGTGGG | 0.981 ± 0.015 |
| TTATGTAGGT | 0.9798 ± 0.007 |
| TTATGTTTAA | 0.999 ± 0.025 |

| Sequence | switch fluorescence ratio |
| --- | --- |
| TTATTAAATG | 0.998 ± 0.013 |
| TTATTAAGGT | 1.01 ± 0.031 |
| TTATTACGCT | 0.9981 ± 0.0094 |
| TTATTACGGG | 1.01 ± 0.038 |
| TTATTACTTA | 0.984 ± 0.017 |
| TTATTAGAAG | 0.978 ± 0.012 |
| TTATTAGAGC | 0.958 ± 0.085 |
| TTATTAGGAT | 0.974 ± 0.024 |
| TTATTAGGCA | 1.01 ± 0.023 |
| TTATTAGTCA | 0.986 ± 0.041 |
| TTATTATGGG | 0.987 ± 0.0073 |
| TTATTCATCG | 1.01 ± 0.031 |
| TTATTCGCAA | 4.457 ± 0.044 |
| TTATTCGGTA | 0.9978 ± 0.0065 |
| TTATTCGTCC | 1.04 ± 0.058 |
| TTATTCTTTC | 1.01 ± 0.046 |
| TTATTGCGCT | 0.994 ± 0.013 |
| TTATTGCGGG | 0.967 ± 0.019 |
| TTATTGGGAC | 0.972 ± 0.02 |
| TTATTGTTAC | 1.03 ± 0.036 |
| TTATTGTTTT | 1.02 ± 0.065 |
| TTATTTATTT | 0.975 ± 0.03 |
| TTATTTGAGT | 1.06 ± 0.12 |
| TTATTTTAAC | 0.981 ± 0.04 |
| TTATTTTTAT | 0.998 ± 0.018 |

| Sequence | switch fluorescence ratio |
| --- | --- |
| TTATTTTTGC | 1.01 ± 0.042 |
| TTCAAAACGC | 1.03 ± 0.054 |
| TTCAAAAGGG | 1.05 ± 0.052 |
| TTCAAAATGT | 0.997 ± 0.032 |
| TTCAAAGTCA | 1.02 |
| TTCAAATGAG | 0.98 ± 0.044 |
| TTCAAATGCT | 0.998 ± 0.013 |
| TTCAAATTTA | 0.995 ± 0.025 |
| TTCAACGACG | 0.988 ± 0.082 |
| TTCAAGATGG | 0.992 ± 0.046 |
| TTCAAGATTT | 0.974 ± 0.022 |
| TTCAAGCAGA | 1.034 ± 0.0087 |
| TTCAAGCTGG | 1.039 ± 0.0098 |
| TTCAAGGGAG | 0.995 ± 0.014 |
| TTCAAGGGTT | 1.07 ± 0.18 |
| TTCAATACCG | 1.09 ± 0.025 |
| TTCAATATGC | 1.1 ± 0.033 |
| TTCAATATTT | 1 ± 0.024 |
| TTCAATCCGT | 1.17 ± 0.24 |
| TTCAATGTAG | 1 ± 0.029 |
| TTCAATTCAC | 1.37 ± 0.41 |
| TTCAATTTCC | 1.01 ± 0.028 |
| TTCACAGGAG | 1.12 ± 0.05 |
| TTCACATTGG | 1.01 ± 0.03 |
| TTCACGAGTG | 0.988 ± 0.052 |

| Sequence | switch fluorescence ratio |
| --- | --- |
| TTCACTGGGC | 1.01 ± 0.0013 |
| TTCACTTTGA | 1.012 ± 0.0067 |
| TTCACTTTTT | 1 ± 0.012 |
| TTCAGAAGCC | 1.12 ± 0.061 |
| TTCAGAAGCG | 1.01 ± 0.028 |
| TTCAGAAGGT | 1.01 ± 0.051 |
| TTCAGACTTT | 0.996 ± 0.022 |
| TTCAGAGCGT | 0.994 ± 0.018 |
| TTCAGATGCG | 0.993 ± 0.041 |
| TTCAGATGGG | 0.972 ± 0.01 |
| TTCAGCCATT | 1.01 ± 0.041 |
| TTCAGCCGAG | 1.02 ± 0.014 |
| TTCAGCTCTA | 0.993 ± 0.028 |
| TTCAGGAGAC | 1.01 ± 0.041 |
| TTCAGGAGTG | 0.993 ± 0.067 |
| TTCAGGCCGT | 1.02 ± 0.056 |
| TTCAGGGAGA | 1.005 ± 0.008 |
| TTCAGGGGCT | 1.43 ± 0.58 |
| TTCAGGGGTC | 1.02 ± 0.018 |
| TTCAGTACCT | 1.19 ± 0.016 |
| TTCAGTATGG | 0.9614 ± 0.0068 |
| TTCAGTGCAT | 1.02 ± 0.051 |
| TTCAGTGGAG | 1.009 ± 0.0087 |
| TTCAGTTCGT | 1.008 ± 0.0089 |
| TTCAGTTGAG | 1 ± 0.014 |

| Sequence | switch fluorescence ratio |
| --- | --- |
| TTCAGTTTTA | 1.017 ± 0.0035 |
| TTCATAACAA | 1.02 ± 0.022 |
| TTCATAATGT | 0.9632 ± 0.0096 |
| TTCATCAGCG | 1.05 ± 0.083 |
| TTCATCGGGG | 0.979 ± 0.028 |
| TTCATGAGTT | 1 ± 0.0022 |
| TTCATGGGGC | 1.05 ± 0.086 |
| TTCATTAATC | 0.97104 ± 0.00025 |
| TTCATTCGCT | 1.52 ± 0.056 |
| TTCATTCGTT | 1.05 ± 0.046 |
| TTCATTGGGA | 1.01 ± 0.025 |
| TTCATTTCGG | 1.001 ± 0.0025 |
| TTCATTTGGT | 0.983 ± 0.025 |
| TTCCAATGAT | 1.01 ± 0.044 |
| TTCCACCAAA | 1.07 ± 0.033 |
| TTCCAGTTGG | 1.04 ± 0.037 |
| TTCCATGTCG | 0.958 ± 0.02 |
| TTCCATTTTT | 0.984 ± 0.012 |
| TTCCCCAGTT | 1.03 ± 0.036 |
| TTCCCCCTTT | 1.45 ± 0.58 |
| TTCCCCGTTG | 1.12 ± 0.15 |
| TTCCCGAAGT | 1.02 ± 0.04 |
| TTCCCGGACT | 1.02 ± 0.024 |
| TTCCCGTGGG | 1 ± 0.011 |
| TTCCGAAGGT | 1.03 ± 0.03 |

| Sequence | switch fluorescence ratio |
| --- | --- |
| TTCCGAGATA | 1.119 ± 0.0079 |
| TTCCGAGCTA | 2.563 ± 0.0074 |
| TTCCGCCGCT | 2.34 ± 1.8 |
| TTCCGGGAGG | 0.993 ± 0.076 |
| TTCCGGGGCG | 0.991 ± 0.038 |
| TTCCGGTCTT | 1.03 ± 0.066 |
| TTCCGGTTGT | 1.03 ± 0.011 |
| TTCCGTTATG | 1.04 ± 0.037 |
| TTCCTCTGTT | 1.37 ± 0.26 |
| TTCCTGAGGG | 1.11 ± 0.058 |
| TTCCTGGAC | 1.7 ± 0.39 |
| TTCCTTAGCG | 1.03 ± 0.015 |
| TTCCTTGGAT | 1.015 ± 0.0019 |
| TTCCTTGGTC | 1.18 ± 0.24 |
| TTCCTTTTGT | 1.29 ± 0.43 |
| TTCGAAGGTT | 0.979 ± 0.017 |
| TTCGACGCTA | 1.33 ± 0.57 |
| TTCGACGGTT | 1.03 ± 0.033 |
| TTCGACTTCG | 0.9903 ± 0.0063 |
| TTCGACTTTT | 0.988 ± 0.051 |
| TTCGAGACTT | 1.05 ± 0.055 |
| TTCGAGCGAT | 1.78 ± 0.98 |
| TTCGAGTTGG | 0.9772 ± 0.0027 |
| TTCGATCGTT | 1.01 ± 0.043 |
| TTCGATGCAT | 1.58 ± 0.43 |

| Sequence | switch fluorescence ratio |
| --- | --- |
| TTCGATTGTT | 0.952 ± 0.018 |
| TTCGCCTAAG | 0.9658 ± 0.0067 |
| TTCGCGGGTT | 0.97 ± 0.01 |
| TTCGCTGGGT | 0.995 ± 0.017 |
| TTCGGAAATG | 1.03 ± 0.025 |
| TTCGGAACAG | 0.967 ± 0.013 |
| TTCGGAAGGG | 0.956 ± 0.025 |
| TTCGGAAGTT | 0.966 ± 0.021 |
| TTCGGAATTG | 1.04 ± 0.033 |
| TTCGGACTGC | 1.06 ± 0.031 |
| TTCGGAGGGA | 2.2 ± 1.5 |
| TTCGGAGTTG | 1 ± 0.022 |
| TTCGGATGGC | 1.01 ± 0.084 |
| TTCGGATTCG | 0.968 ± 0.03 |
| TTCGGATTGG | 1.01 ± 0.0061 |
| TTCGGCGACG | 1.0016 ± 0.00078 |
| TTCGGCGCTG | 1.03 ± 0.074 |
| TTCGGGATTA | 1 ± 0.018 |
| TTCGGGGAAA | 1.02 ± 0.043 |
| TTCGGGGAAC | 1.06 ± 0.11 |
| TTCGGGGGGA | 1.04 ± 0.09 |
| TTCGGGGTGG | 0.9976 ± 0.0066 |
| TTCGGGTTTT | 1 ± 0.033 |
| TTCGGTACTG | 1.01 ± 0.033 |
| TTCGGTATGT | 1.01 ± 0.027 |
